From patent US20220324998A1 (MUSC FOUNDATION FOR RESEARCH DEVELOPMENT, published 2022)

Experiments:
[1] = target: T1, HRAS(G12V) (UniProt P01112 1-189); experiment: FLAG IP of monobody from HEK cells co-transfected with HA-tagged RAS mutant (FIG. 11D)
T1 construct: also called G12V mutant
Source text: FIG. 11A depicts KRAS(Q61L) co-expression with NS1 and R15. FIG. 11B depicts KRAS(G12D) co-expression with NS1 and R15. FIG. 11C depicts KRAS(G13D) co-expression with NS1 and R15. FIG. 11D depicts HRAS(G12V) co-expression with NS1 and R15. FIGS. 11E and 11F depict total expression of proteins with NS1 and R15, respectively, in whole cell lysates (WCL). HEK cells were co-transfected with the indicated Mb and HA-tagged RAS mutant. Monobodies were subsequently immunoprecipitated with FLAG antibodies to purify the associated RAS mutant protein. IPs were washed extensively with buffer containing high Mg2+ and lacking nucleotide. RAS proteins were then eluted from the immune complex with buffer containing low concentrations of SDS and deoxycholate (DOC). Eluted RAS proteins were then recovered and diluted 10-fold with buffer lacking SDS and DOC. Purified RAS proteins were then normalized to equivalent levels and incubated with GST-RAF-RBD to determine the level of active GTP-loaded RAS. As indicated, NS1 purified RAS-GTP as the purified RAS proteins robustly bound GST-RAF RBD both in the absence and presence of added GTPγS. […] However, addition of GTPγS (+GTP) to the R15m10 purified RAS proteins reconstituted binding to the RAF-RBD.
HEK cells were co-transfected with the indicated Mb and HA-tagged RAS mutant. […]

[2] = target: T2, HRAS(Q61L) (UniProt P01112 1-189, limits assumed); experiment: co-IP (FLAG IP, Western blot) from HEK cells (FIG. 6)
T2 construct: HA-tagged, expressed in HEK cells; also called Q61L mutant; HA-tagged HRAS Q61L
Source text: (§1) R15m clones were expressed as CFP-FLAG fusion proteins in HEK cells along with various HA-tagged mutants of HRAS. CFP and NS1 Monobody were used as controls. CFP-FLAG and CFP-FLAG-tagged Monobodies (Mb) were immunoprecipitated, fractionated on SDSPAGE, and probed for binding to HRAS mutants. Antibodies used in Western blots are shown to the right of each panel.
(§2) R15 or R18 Monobody was expressed as CFP-FLAG fusion proteins in HEK cells along with various HA-tagged mutants of HRAS or KRAS, immunoprecipitated, and probed for binding to RAS mutants (FIGS. 1B and 1C). Additionally, various R15-derivative (R15m #) Monobody clones were expressed as CFP-FLAG fusion proteins in HEK cells along with various HA-tagged mutants of HRAS, immunoprecipitated, and probed for binding to RAS mutants (FIG. 5). R15 and R18 clones bound predominantly to Q61L, D119N, and K16N mutants with little binding to wild type (WT) or G12V mutant. K16N purifies from bacteria in a nucleotide free state. […] R15m10 binds Q61L mutants of all three RAS isoforms in addition to binding to NRAS(G12D) mutant (FIG. 6). Further R15m10 binds common oncogenic RAS mutants (FIG. 7 and FIG. 8).

[3] = target: T3, NRAS(Q61L) (UniProt P01111 1-189, limits assumed); experiment: as above
T3 construct: HA-tagged, expressed in HEK cells
Source text: as §1, §2

[4] = target: NRAS(G12D) (UniProt P01111 1-189, limits assumed); experiment: as above
Source text: as §1, §2

Measured: binding result

B1: FLAG-tagged CFP-R15m10 Monobody (designed binder)
chain: VSSVPTKLEVVAATPTSLLISWDASSSSVSYYRITYGETGGNSPVQEFTVPGYYSTATISGLKPGVDYTITVYAVWQGVWRYVSPISINYRT
notes: also called apo-specific monobody R15m10; not shown: CFP; FLAG tag
binds: [1] | [2] | [3] | [4]
